From the RNAGym collection of RNA variant scans (doi:10.7554/elife.80360)

B1: CPEB3 Ribozyme (parent)
chain: GGGGGCCACAGCAGAAGCGUUCACGUCGCGGCCCCUGUCAGAUUCUGGUGAAUCUGCGAAUUCUGCUGU

Variants of: B1
Assay: self-cleavage, relative activity (ratio to wild type); higher = more cleavage; co-transcriptional

In order of falling self-cleavage:
1. G1C C32U  0.327
2. G1C C54G  0.321
3. G1C C32A  0.279
4. G1C U49G  0.275
5. G1C G31A  0.272
6. G1C A59C  0.27
7. G1C G58C  0.267
8. G1C A15C  0.266
9. G1C G31U  0.266
10. G1C A59G  0.26
11. G1C C12U  0.252
12. G1C G58U  0.248
13. G1C U43C  0.245
14. G1C G48U  0.241
15. G1C C12G  0.238
16. G1C C34U  0.236
17. G1C U64A  0.236
18. G1U C9G  0.233
19. G1C U44A  0.231
20. G1C G41C  0.23
21. G1C A15G  0.228
22. G1C C39U  0.227
23. G1C C66A  0.226
24. G1C G56A  0.223
25. G1U C9U  0.219
26. G1C C39G  0.217
27. G1C U43G  0.205
28. G1C U43A  0.202
29. G1C C63A  0.199
30. G1C U67A  0.193
31. G1U A15G  0.191
32. G1C U67C  0.19
33. G1C G41A  0.19
34. G1A C9U  0.19
35. G1C U55A  0.189
36. G1C G56C  0.186
37. G1U C34A  0.184
38. G1A A23U  0.184
39. G1C A13G  0.183
40. G1C U64C  0.179
41. G1C U36C  0.177
42. G1C G58A  0.172
43. G1C C66U  0.172
44. G1C G50U  0.169
45. G1A A59G  0.167
46. G1C U55C  0.167
47. G1U A52G  0.167
48. G1C C35U  0.167
49. G1C G11C  0.165
50. G1C G11U  0.164
51. G1C C63U  0.164
52. G1C C12A  0.164
53. G1C U26C  0.162
54. G1C C35G  0.161
55. G1C C34G  0.159
56. G1C A13U  0.155
57. G1C G17U  0.155
58. G1C C34A  0.152
59. G1U C45U  0.152
60. G1C U26G  0.152
61. G1C U44G  0.151
62. G1A G5A  0.15
63. G1C A59U  0.147
64. G1A C9A  0.145
65. G1C A13C  0.143
66. G1C G11A  0.14
67. G1A G11A  0.136
68. G1U A15C  0.136
69. G1A A51U  0.136
70. G1U C45G  0.134
71. G1A U46A  0.134
72. G1U A52U  0.129
73. G1U C6G  0.126
74. G1A G58C  0.126
75. G1U C12U  0.124
76. G1C G17A  0.124
77. G1U C34G  0.123
78. G1U A13U  0.122
79. G1A C32U  0.12
80. G1A A10C  0.117
81. G1C U49C  0.116
82. G1U C54A  0.116
83. G1U C18G  0.115
84. G1A G50A  0.114
85. G1U C35U  0.113
86. G1U C29A  0.111
87. G1U A23U  0.108
88. G1U C12G  0.106
89. G1A G65U  0.106
90. G1A G37U  0.104
91. G1A G47U  0.104
92. G1A G47A  0.104
93. G1U C18U  0.104
94. G1C G25C  0.103
95. G1A C63A  0.1
96. G1U C54G  0.099
97. G1A C22U  0.0977
98. G1U A42G  0.0976
99. G1A U55C  0.0976
100. G1A C7G  0.0966
101. G1A G41U  0.0947
102. G1U A42C  0.0921
103. G1U C6U  0.0906
104. G1A C54A  0.0906
105. G1A U46C  0.0905
106. G1A C9G  0.0894
107. G1U A42U  0.0891
108. G1U C6A  0.0884
109. G1C G19A  0.086
110. G1C G17C  0.0857
111. G1C G25U  0.0853
112. G1A U62A  0.0846
113. G1U A8U  0.0804
114. G1U C35A  0.0801
115. G1A C54G  0.0801
116. G1A C45G  0.0789
117. G1A C66G  0.0767
118. G1A C35U  0.0752
119. G1C G25A  0.0736
120. G1A G50U  0.0729
121. G1A G58A  0.0724
122. G1A A59U  0.0722
123. G1A C45U  0.0709
124. G1A C57G  0.0693
125. G1C C35A  0.069
126. G1A G5C  0.0678
127. G1U A40C  0.0668
128. G1U C27A  0.0657
129. G1C G31C  0.0643
130. G1A C63U  0.0639
131. G1A A8U  0.0637
132. G1A A59C  0.0603
133. G1A C18U  0.0601
134. G1U C29G  0.0597
135. G1A U55A  0.059
136. G1U C27G  0.0589
137. G1A G11U  0.0575
138. G1U C29U  0.0573
139. G1A G5U  0.0571
140. G1A C57U  0.0557
141. G1A C39U  0.0531
142. G1C U36A  0.0531
143. G1A U36A  0.0492
144. G1A C57A  0.0488
145. G1A U36C  0.0487
146. G1A C32A  0.0486
147. G1A G65C  0.0479
148. G1A C29G  0.0465
149. G1A U46G  0.0453
150. G1A C27U  0.0438
151. G1A G65A  0.0429
152. G1A C29U  0.0423
153. G1A G47C  0.0423
154. G1A C18G  0.0371
155. G1A G28U  0.0362
156. G1A C63G  0.0342
157. G1A C32G  0.0331
158. G1A G41C  0.0331
159. G1A A60C  0.0326
160. G1A U36G  0.0321
161. G1A G37C  0.0318
162. G1A C18A  0.0308
163. G1A G3C  0.0286
164. G1U A8C  0.0263
165. G1U A16C  0.022
166. G1A G28C  0.0192
167. G1A C35A  0.0188
